The source of these data is patent US20080311122A1 (AstraZeneca / MedImmune, published 2008).

For test [1], the target named is T1, recombinant HMG1 purified from E. coli as a calmodulin binding protein (CBP) fusion protein (human, UniProt A9RA84 1-215 (Papio anubis entry)).
T1 sequence: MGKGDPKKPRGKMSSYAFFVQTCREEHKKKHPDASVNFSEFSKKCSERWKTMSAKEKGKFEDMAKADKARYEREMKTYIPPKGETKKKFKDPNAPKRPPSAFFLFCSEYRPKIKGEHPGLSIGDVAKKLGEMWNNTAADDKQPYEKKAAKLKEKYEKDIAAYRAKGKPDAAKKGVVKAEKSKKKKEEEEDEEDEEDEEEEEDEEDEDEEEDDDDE
The experiment in a line: cell-based or functional assay.

Test [2] addresses T1, recombinant HMG1 purified from E. coli …. The experiment in a line: BIAcore, mAb immobilized, HMG1 injected, steady-state model. Here is the method: HMG1 Binding Affinity via BIAcore Analysis: All experiments were performed on a BIAcore 3000 instrument (BIAcore, Inc., Piscataway, N.J.). Briefly, each mAb was immobilized to a CM5 sensor chip using a standard amino coupling chemistry. Separately a reference (control) flow cell was also prepared. Two-fold, serial dilutions of HMG1 in instrument buffer were sequentially injected at a slow flow rate over the individual mAb and reference flow-cell surfaces. Following the binding and dissociation of HMG1, the mAbs surfaces were regenerated with a brief pulse of 1M NaCl-50 mM NaOH. At the end of each experiment, the binding curves were evaluated using a steady-state model available through the BIA evaluation software supplied by BIAcore, Inc. (Piscataway, N.J.).
(SPR reads the build-up and loss of mass on a sensor chip optically.)

The target in another test is T2, HMG2 (UniProt P40673 2-209, limits assumed).
T2 construct: also called HMGB2; HMBG2
T2 sequence (looked up): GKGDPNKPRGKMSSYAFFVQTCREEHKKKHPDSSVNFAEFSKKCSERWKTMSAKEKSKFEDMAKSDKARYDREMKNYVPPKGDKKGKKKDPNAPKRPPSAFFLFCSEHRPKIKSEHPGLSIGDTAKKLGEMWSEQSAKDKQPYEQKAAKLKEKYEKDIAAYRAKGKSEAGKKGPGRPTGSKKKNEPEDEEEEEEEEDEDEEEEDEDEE
The experiment in a line: ELISA, wells coated with HMGB2 at 5 ug/mL, OD 490. Here is the method:
(§1) Binding to HMG1 vs. HMG2: Ultra high-binding ELISA plates (ThermoLab systems, #3855) were coated with either 5 ug/mL of Calf thymus HMGB1 or HMBG2 diluted in 10 mM Phosphate buffered saline (PBS), pH 7.2 and incubate overnight at 4 degrees. The plates were washed twice with Ca and Mg free PBS and 100 microliters of anti-HMGB1 antibody diluted in 10 mM PBS, pH 7.2+1% bovine serum albumin (BSA) to a final concentration of 10 ug/mL was added to each well and the plates were incubated 1 hour at room temperature. The wells were washed three times with 100 μl of PBS, pH 7.2. HRP labeled goat-anti-human IgG Kappa-chain (KPL, #14-10-10) and goat-anti-human IgG Lambda-chain (KPL, #14-10-11) were diluted in 10 mM PBS+1% BSA 1:1000 and 100 μl were added to each well and incubated for 1 hour at room temperature. The wells were then washed three times with 100 μl of PBS, pH 7.2. OPD substrate (Pierce chemical company, #34006) was prepared following the manufacturers instructions and 100 μl of prepared substrate was added to each well and the plates incubated at room temperature in the dark for 20-30 minutes. The reaction was stopped with the addition of 100 μl of 2M H₂SO₄, and the plates read on a plate reader at a wavelength of 490 nm.
(ELISA stands for enzyme-linked immunosorbent assay.)

For test [3], the target named is T3, HMG1 B Box peptide amino acids 91-169.
T3 construct: also called HMG1 peptide 91-169
T3 peptide: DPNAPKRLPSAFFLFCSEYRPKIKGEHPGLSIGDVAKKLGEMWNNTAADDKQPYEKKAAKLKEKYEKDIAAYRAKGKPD
The experiment in a line: ELISA, wells coated with HMG1 B Box peptide 91-169 at 10 ug/ml. Here is the method:
(§2) The plate was then blocked with 4% milk powder dissolved in PBS at 37° C. for 1 hour. The blocking solution was removed and replaced with human anti-HMG1 antibodies at various concentrations (see FIGS. 5A-B). […] HRP activity was detected with Sureblue HRP substrate (KPL). Plates were read at 450 nm using a Kinetic Microplate Reader (Molecular Devices). […] After washing and blocking with 1% BSA in PBS, the biotinylated peptides were individually added into the avidin coated wells and incubated for 30 min at room temperature. The serial diluted antibody G4, S16 and S6 at the initial concentration at 10 μg/ml were then transferred into the wells followed by adding mouse anti human IgG-HRP conjugate (Pierce). Detection was accomplished by adding 50 μl of tetramethylbenzidine (TMB) substrate (KPL) and the absorbance was read at […].

Test [4] deals with T4, HMG1 B Box peptide amino acids 150-183.
T4 peptide: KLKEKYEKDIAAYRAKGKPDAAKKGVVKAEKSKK
The experiment in a line: ELISA, wells coated with HMG1 B Box peptide 150-183 at 10 ug/ml. Here is the method:
as §2

For test [5], the target named is T5, HMG1 purified from bovine (calf) thymus (bovine, UniProt P10103 2-215).
T5 construct: also called Calf thymus HMGB1; thymus HMG1
T5 sequence (looked up): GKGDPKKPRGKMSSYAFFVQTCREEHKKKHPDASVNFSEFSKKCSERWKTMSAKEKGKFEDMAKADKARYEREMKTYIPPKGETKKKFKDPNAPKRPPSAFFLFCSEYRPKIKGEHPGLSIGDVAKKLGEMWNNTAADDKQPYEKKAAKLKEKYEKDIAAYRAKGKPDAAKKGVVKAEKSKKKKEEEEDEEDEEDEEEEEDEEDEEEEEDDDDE
The experiment in a line: ELISA, wells coated with calf thymus HMGB1 at 5 ug/mL, antibody at 10 ug/mL, anti-human kappa/lambda-HRP, OD 490. Here is the method: as §1

B1: anti-HMG1 antibody G34 (antibody, V domains shown)
VH: EVQLLESGGGLVQPGGSLRLSCAASGFTFSHYMMGWVRQAPGKGLEWVSRISPSGGGTVYADSVKGRFTISRDNSKNTLYLQMNSLRAEDTAVYYCARGGNWNYISYYYYYLDVWGKGTTVTVSS
VL: DIQMTQSPSSLSASVGDRVAITCRASQSIDTYLNWYQQKPGKAPKLLIYAASKLEDGVPSRFSGSGTGTDFTLTIRSLQPEDFASYFCQQSYSSPGITFGPGTKVEIK
A word on the Kd: it is a measure of binding affinity in units of concentration. Turning to B1, in test [1], the “IC50, inhibition of rHMG1 stimulated IL-6 release from human PBMC” value stood at 0.858 nM. Further, in test [2], the Kd amounted to 67 nM. Further, the binding result with HMG2 is on record as “no binding (tested: 10 ug/mL (not on the sheet))”; in test [3] it was “no binding (tested: 10 ug/ml (log 1.00))”; in test [4], “no binding (tested: 10 ug/ml (log 1.00))”; in test [5], “binds”.

B2: anti-HMG1 antibody G20 (antibody, V domains shown)
VH: EVQLLESGGGLVQPGGSLRLSCAASGFTFSWYDMFWVRQAPGKGLEWVSWISPSGGYTKYADSVKGRFTISRDNSKNTLYLQMNSLRAEDTAMYYCARSGLDYYDSSGYLDAFDIWGQGTMVTVSS
VL: DIQMTQSPSSVSASVGDRVTITCRASQDVSIWLAWYQQKPGKAPKLLIFGASRLQSGVPSRFSGSRSGADFTLTIDSVQPEDFASYYCQQADSFPLTFGGGTKVEIK
For the molecule B2, in test [1], the “IC50, inhibition of HMG1 stimulated NO release from macrophages” value is 20.4 µg/mL; the “IC50, inhibition of rHMG1 stimulated IL-1β release from human PBMC” value worked out at 0.4 µg/mL; the “IC50, inhibition of rHMG1 stimulated IL-6 release from human PBMC” value worked out at 0.652 nM; the “IC50, inhibition of rHMG1 stimulated TNF-α release from human PBMC” value turned out to be 0.598 µg/mL. Besides, in the test with HMG2, the binding result is “no binding (tested: 10 ug/mL (not on the sheet))”. Besides, the binding result in test [3] is given as “no binding (tested: 10 ug/ml (log 1.00))”. Moreover, the binding result in test [5] is recorded as “binds”.

B3: anti-HMG1 antibody S14 (antibody, V domains shown)
VH: EVQLLESGGGLVQPGGSLRLSCAASGFTFSWYETGWVRQAPGKGLEWVSGISPSGGYTQYADSVKGRFTISRDNSKNTLYLQMNSLRAEDTAVYYCARSGVGATKIFDYWGQGTLVTVSS
VL: DIQMTQSPSSLSASVGDRVTIICRANERINTYLNWYQQKPGKAPKLLISGTSSLESGVPSRFSGSGSGTEFTLSISSLQPEDFASYYCQQSYSSPYTFGQGTNLEIR
On to B3, for which the “IC50, inhibition of rHMG1 stimulated IL-1β release from human PBMC” value in test [1] is 0.0678 µg/mL. Besides, the “IC50, inhibition of rHMG1 stimulated IL-6 release from human PBMC” value in test [1] was 0.191 nM. In test [1], the “IC50, inhibition of rHMG1 stimulated TNF-α release from human PBMC” value amounted to 0.0662 µg/mL. For the same molecule, in test [2], the Kd worked out at 205 nM. Moreover, the binding result is “no binding (tested: 10 ug/mL (not on the sheet))” with HMG2, “no binding (tested: 10 ug/ml (log 1.00))” in test [3], “no binding (tested: 10 ug/ml (log 1.00))” in test [4] and “binds” in test [5].

B4: anti-HMG1 antibody G35 (antibody, V domains shown)
VH: EVQLLESGGGLVQPGGSLRLSCAASGFTFSWYKMVWVRQAPGKGLEWVSSIVPSGGITIYADSVKGRFTISRDNSKNTLYLQMNSLRAEDTAVYYCARVQQWLGRPYFDYWGQGTLVTVSS
VL: DIQMTQSPLSLPVTPGEPASISCRSSQSLLHGNGYNYLDWYLQRPGQSPQLLIYSGSNRASGVPDRFSGSGSGTDFTLKISRVEAEDVGVYYCMQSLQSRTFGQGTKVEIK
For the molecule B4, the “IC50, inhibition of rHMG1 stimulated IL-6 release from human PBMC” value in test [1] turned out to be 0.564 nM. Also, the Kd in test [2] was 242 nM. Moreover, the binding result with HMG2 is “no binding (tested: 10 ug/mL (not on the sheet))”; in test [4] it was “no binding (tested: 10 ug/ml (log 1.00))”; in test [5], “binds”.

B5: anti-HMG1 antibody G9 (antibody, V domains shown)
VH: EVQLLESGGGLVQPGGSLRLSCAASGFTFSSYDMFWVRQAPGKGLEWVSRISPSGGYTYYADSVKGRFTISRDNSKNTLYLQMNSLRAEDTAVYYCARLRYFDSRGYAFDIWGQGTMVTVSS
VL: DIQMTQSPGTLSLSPGERATLSCRASQSVRSSYLAWYQQKPGQAPRLLIYGASTRATGIPDRFSGSGSGTDFTLTISRLEPEDFAVYYCQQYGTSRWTFGQGTKVEIK
Turning to B5, in test [1], the “IC50, inhibition of rHMG1 stimulated IL-1β release from human PBMC” value came to 0.211 µg/mL. In addition, the “IC50, inhibition of rHMG1 stimulated IL-6 release from human PBMC” value in test [1] was found to be 0.246 nM. Also, the “IC50, inhibition of rHMG1 stimulated TNF-α release from human PBMC” value in test [1] was 0.248 µg/mL. Moreover, the Kd in test [2] came to 125 nM. Moreover, the binding result is “no binding (tested: 10 ug/mL (not on the sheet))” with HMG2, “no binding (tested: 10 ug/ml (log 1.00))” in test [3], “no binding (tested: 10 ug/ml (log 1.00))” in test [4] and “binds” in test [5].

B6: anti-HMG1 antibody G12 (antibody, V domains shown)
VH: EVQLLESGGGLVQPGGSLRLSCAASGFTFSYYMMTWVRQAPGKGLEWVSSISPSGGYTIYADSAKGRFTISRDNSKNTLYLQMNSLRAEDTAVYYCARALSTGSFWDYWGQGTLVTVSS
VL: DIQMTQSPGTLSLSPGERATLSCRASESLTSTYVAWYQHKPGQAPRLLIHGGSTRATGIPVRFSGSGSGTDFTLTIATLEPEDFAVYYCQQYGSSPYTFGQGTKLEIK
As for B6, in test [1], the “IC50, inhibition of rHMG1 stimulated IL-1β release from human PBMC” value worked out at 5.91 µg/mL; the “IC50, inhibition of rHMG1 stimulated IL-6 release from human PBMC” value turned out to be 1.12 nM; the “IC50, inhibition of rHMG1 stimulated IL-12 release from human PBMC” value came out at 2.79 µg/mL; the “IC50, inhibition of rHMG1 stimulated TNF-α release from human PBMC” value is 0.796 µg/mL. Further, the Kd in test [2] is 73 nM. Also, the binding result with HMG2 is given as “no binding (tested: 10 ug/mL (not on the sheet))”. In test [3], the binding result is reported as “no binding (tested: 10 ug/ml (log 1.00))”. In addition, the binding result in test [4] is on record as “no binding (tested: 10 ug/ml (log 1.00))”. Further, the binding result in test [5] is “binds”.
